Laboratory results: the DeepSol protein solubility set

Experiment: soluble on expression in E. coli; label from the status in PepcDB or PDB records

Sequence: MGSDKIHHHHHHMFRRHGIIAFSSNYELYADMSNRVMTTLEELSPRCEIYSIDEAFCDLTGVRNCRDLTDFGREIRETVLRRTHLTIGVGIAQTKTLAKLANHAAKQWQRQTGGVVDLSNLERQRKLMALLPVDEVWGVGRRISKKLEAMGIKTVLQLADTDIRFIRKHFNVVLERTVRELRGEPCLGLEEFAPVKQEIVCSRSFGGRITEYHEMRQAICSYASRAAEKLRGEHQYCRFISAFVKTSPFALNEPYYGNSASVKLLTPTQDSRDIITAATKCLDAIWRDGHRYQKAGVMLGDFYSQGVAQLNLFDDNAPRKGSEKLMEVLDHLNAKGGRGTLYFAGQGIQTAWQMKREMLSPRYTTRFCDLLKVR
- soluble on expression in E. coli: not soluble

Sequence: STDNTTSSDLIKNVETARSTIDGLIESLGWIELNYRCERQCNWDEVCYTPSWGPSPMGMTEPGSHNEGFGTHFDESRQRLVINSKLQCININDLMVNRNH
- soluble on expression in E. coli: soluble

Sequence: MHHHHHHSSGVDLGTENLYFQSMCAAQMPPLAHIFRGTFVHSTWTCPMEVLRDHLLGVSDSGKIVFLEEASQQEKLAKEWCFKPCEIRELSHHEFFMPGLVDTHIHASQYSFAGSSIDLPLLEWLTKYTFPAEHRFQNIDFAEEVYTRVVRRTLKNGTTTACYFATIHTDSSLLLADITDKFGQRAFVGKVCMDLNDTFPEYKETTEESIKETERFVSEMLQKNYSRVKPIVTPRFSLSCSETLMGELGNIAKTRDLHIQSHISENRDEVEAVKNLYPSYKNYTSVYDKNNLLTNKTVMAHGCYLSAEELNVFHERGASIAHCPNSNLSLSSGFLNVLEVLKHEVKIGLGTDVAGGYSYSMLDAIRRAVMVSNILLINKVNEKSLTLKEVFRLATLGGSQALGLDGEIGNFEVGKEFDAILINPKASDSPIDLFYGDFFGDISEAVIQKFLYLGDDRNIEEVYVGGKQVVPFSSSV
- soluble on expression in E. coli: soluble

Sequence: MGSDKIHHHHHHMSTVTTGRTLDANGDPVPGTGFELDPDSQFADRVRERTGPVTSHPTRPVWGIPLEGSGDTIRTLSVFGPGYGGPPEHYHEQSPERFEVERGSLTMMLDGTDHEVTAGETATVETGVTHTFRNDTDKRAVVITNIYSPGRLRQVLPTLGGLAHDDEGNPENPLQQALVADRLDGNTVFTRQERLEPLSRLLTPVAELAGYQGAYAKYTQPAFWERHVEQPDL
- soluble on expression in E. coli: not soluble

Sequence: MIRILLSNDDGISAPGIQTLASALRGFAQVQIVAPDRNRSGASNALTLDSALRITTLSNGDIAVQQGTPTDCVYLGVNALMRPRPDIVVSGINAGPNLGDDVIYSGTVAAAMEGRHLGYPALAVSLNGHQHYDTAAAVTCRLLRALQRKPLRTGKILNINVPDLPLAEIKGIRVTRCGSRHPAEQVFCQQDPRGQDLYWIGPPGEKYDAGPDTDFAAVEQGYVSITPLQVDLTAYMAQEVVESWLANTEVDGEW
- soluble on expression in E. coli: not soluble

Sequence: SNEGKELSTFCRKFEVPLRKALEKAGRLVDDPGRPRLLLTFISGRRVFVGVASASNSALWPMGIPRLKFPREAPSRSTLKLEEAWHQFIPREQWEQRLGDDMTGVDLGASPGGWTYQLVRRGMLVTAIDNGPMAESLMDTGLVQHLMADGFTWQPKQPVDWMVCDIVEKPARTTSLIETWLGEGLCREAVVNLKLPMKQRYAEVRRLLDRMEATFKARKIRVSIACKQLYHDREEVTCHLRRLDLK
- soluble on expression in E. coli: not soluble

Sequence: MSLGYTTAKKEVSVVIEDGINEIINKTERFVSLKLESDISLASSIVDSISLRISDEQYINDIINGNAIKKAFLSTGFGFDSNGKVIENDPNWEPEDDYDPRSRGWYQEAKKNKRIFITEPYLDTEGKNFLVSISSPVADTMNNFIGAMYFDVDLSRIQKNVDDINLFEAGYVFITSNTGKVIIHSNTDELGKNVKDIYNGFRLDKGKVVLSVNGVNKWLYTSPILGGDWFIIAVIDESIAMQSINKMKYEEGHHHHHH
- soluble on expression in E. coli: soluble

Sequence: KKDFTWKTNLTFSLNRNKIVDLYGDKKDDLANRWFIGQPMKVIYDLEKVGIWQTEDKELAAKYGQVPGHIRVADLDENYVIDERDYKVLGSPSPDWTAGMTNTFTYKNWDLSFYMYARIGGTYNDDFTYMFTAWDNEHWNKLNVKYWTPENHSNEYQQIGAQSYHTQVLGKISGSFLKIQNITLGYTLPENWMKKMKMKNARAYINVQNPFTFTDYLGPDPETIGEDVYKSLSLYPMTFTFGVNLTF
- soluble on expression in E. coli: not soluble

Sequence: MHVSPFDWRYGSEEIRRLFTNEAIINAYLEVERALVCALEELGVAERGCCEKVNKASVSADEVYRLERETGHDILSLVLLLEQKSGCRYVHYGATSNDIIDTAWALLIRRALAAVKEKARAVGDQLASMARKYKTLEMVGRTHGQWAEPITLGFKFANYYYELYIACRQLALAEEFIRAKIGGAVGTMASWGELGLEVRRRVAERLGLPHHVITTQVAPRESFAVLASALALMAAVFERLAVEIRELSRPEIGEVVEGGGGSSAMPHKANPTASERIVSLARYVRALTHVAFENVALWHERDLTNSANERVWIPEALLALDEILTSALRVLKNVYIDEERITENLQKALPYILTEFHMNRMIKEGASRAEAYKKAKEVKALTFEYQKWPVERLIEDALSLKLC
- soluble on expression in E. coli: soluble

Sequence: MQNIPPQVQAMLGQLDTYQQQLQLVIQQKQKVQADLNEAKKALEEIETLPDDAQIYKTVGTLIVKTTKEKAVQELKEKIETLEVRLNALNRQEQKINEKVKELTQKIQAALRPPTAG
- soluble on expression in E. coli: soluble

Sequence: MGINERLRHVIEAQKMTIKGFAETVDIPLRSVHNYLSGEREPSADALTKISNKLNINLNWLLLDQGEMYLNQSSDLTLNADEMNLLTQYRQTHDSGKRILQATSKIILDELK
- soluble on expression in E. coli: not soluble

Sequence: MTKKLHIKTWGCQMNEYDSSKMADLLGSTHGYELTEIAEEADVLLLNTCSIREKAQEKVFHQLGRWKALKDLNPNLIIGVGGCVASQEGAHIRERAHYVDVIFGPQTLHRLPEMINHVQGTRSPIVDISFPEIEKFDRLPEPRADGPTAFVSIMEGCNKYCTFCVVPYTRGEEVSRPCDDVLFEIAQLAAQGVREVNLLGQNVNAYRGETYDGEICSFAELLRLVAAIDGIDRVRFTTSHPIEFTDDIISVYEDTPELVSFLHLPVQSGSDRVLTMMKRRHTALEYKAIIRKLHNARPGILISSDFIIGFPGETQADFEQTMKLIADVNFDMSYSFVYSARPGTPAADMVDDVLEEEKKQRLYLLQDRITKQAMRFSRLMLGTVQRILVEGTSRKSVMELSGRTENNRVVNFEGTPDMIGKFVDVEIVDVYTNSLRGIVVRTEDQMDLRVHESPSSVIARTRKENEIGVGFYQPLEHHHHHH
- soluble on expression in E. coli: soluble

Sequence: MQRVDLNSDLGESFGAYTIGQDDRVLEHVTSANIACGYHAGDHNVMARTVKLAADKGMGIGAHPGFPDLLGFGRRNIQTDHKDIYNFIVYQVAALNGFCQLHRVRMQHVKPHGALYNMAAKDRVIAEAIAEAIYDIDPSLILFGLSGSELIKAGKKLGLTVANEVFADRTYQPDGTLTPRSEANALIKESERATEQVIQMVKESKVIAVDGSHIPIEADTICVHGDSPTALSFIERLHAQLQVEGVTVTKVSDFLFKLEHHHHHH
- soluble on expression in E. coli: not soluble

Sequence: MPLADIADVDIDPKGVFKYILIQVTDNSTKQQKFVVRGYYRCSFHDDILQETKSSAPSDLKLKCVGGGRIKHDEIGKDILVYGYSYGYGRADHQIAVDILKQKYPDYNIHFSNDGY
- soluble on expression in E. coli: not soluble

Sequence: MGSDKIHHHHHHMTIDDLKSFMLVCRLHSFSTAAVELSMTQSALSKRLQAIQQEVGSEFISTENRRQILITESGKVFYRYAQRIVSSYDELEQELKAYRELKKGNLQIGRVPVMSQYGLTKIINIFERSYPQIDIHLNELEGNDLLMVLKAGEIDAGIIRDIQTKTIDNNHFNSYTLDRDELKVVLPANDSLNNKKRISIEELANYQVISLESGSGIYEKMVEIYNNAGIPLNVGFKTTHIETIMGMIKNSDQITFLFKKSAMPFMNKQLVMLSLDQPIYSNLELICPRENQHKPALTKFIEYMKKYTSEPVESYP
- soluble on expression in E. coli: not soluble

Sequence: MNSEQQQTVFLCVSYLLSYPDEQWAESLPDCLDAIRSLDDETVRAPLLAFAEQINSIPARQRMEQYVETFDFGKKTNLYLTYMTNGEQRERGIELVALKARYQAAGFAVSDHELPDYLPLMLEWMAYADQEHTTALLADYAGHIREIGDRLAAAGSPYAQLFDALNHTFTQLGVTPLPKGGATAWPANFSG
- soluble on expression in E. coli: not soluble

Sequence: MDYSHQTSLVPCGQDKYISKNELLLHLKTYNLYYEGQNLQLRHREEEDEFIVEGLLNISWGLRRPIRLQMQDDNERIRPPPSSSSWHSGCNLGAQGTTLKPLTVPKVQISEVDAPPEGDQMPSSTDSRGLKPLQEDTPQLMRTRSDVGVRRRGNVRTPSDQRRIRRHRFSINGHFYNHKTSVFTPAYGSVTNVRINSTMTTPQVLKLLLNKFKIENSAEEFALYVVHTSGEKQKLKATDYPLIARILQGPCEQISKVFLMEKDQVEEVTYDVAQYIKFEMPVLKSFIQKLQEEEDREVKKLMRKYTVLRLMIRQRLEEIAETPATILEHHHHHH
- soluble on expression in E. coli: soluble

Sequence: MSLRIVIAGAGEVGYHLAMSLAPNHDVIIIEKDVSRFERVSELDVVAINGNAANMKVLRDAGVERADVFLAVTGNDEVNLLSGLAAKKVGAKNVIVRVENPEYVDRPIVKEHPLGYDVLICPQLSLAQEAARLIGIPGAIEVVTFSGGKVEMIELQVMEGSKADGKAIADLYLPQNVVIASIYRNGHIEIPRGDTVLRAGDRVAIVSKTEDVEMLKGIFGPPVTRRVTIFGAGTIGSYTAKILAKGMTSVKLIESSMERCEALSGELEGVRIVCGDATDIEFLIEEEIGKSDAVLAATESDEKNLLISLLSKNLGARIAIAKVEKREYVKLFEAVGVDVALNPRSVTYNEVSKLLRTMRIETLAEIEGTAVVEVVVRNTRLVGKALKDLPLPKDAIIGAIVRGNECLIPRGDTTIEYEDRLLVFAKWDEIEKIEEIFREGHHHHHH
- soluble on expression in E. coli: soluble

Sequence: MDQLWANRAASAEAAITERHLKKLWGLPGTQLGVVAWPPARKYTLFGTWHYWWQAHLLDCLVDAQVRDPQPERTTRIERQLRAHRLRNNLSWVNDYYDDMAWLALAIERAGRLAGVEKPTALRKLCDQFVTAWVPEDGGGIPWRKQDQFFNAPANGPAGIFLARYDDRLRRAQQMADWIDETLIDPDTHLVFDGIKAGSLVRAQYTYCQGVVLGLEVELAVRTQDPRHAPRVRRLVAAVDKEMTTDGVIKGAGGGDGGLFNGILARYLALVATTLPGETPEDIAARDTARTIVLKSARSAWDHRQTVDGLPLFSAFWDRNAEIPTAGGKEAEFVEGAVNASSVPERDLSVQLAGWMLMEAAHSVDSVDAEDAAGDQNGAGDGEVGHDENEDEELEHHHHHH
- soluble on expression in E. coli: soluble

Sequence: MTQPFNFEQALKDLQSGKSLTGKDSILGPLIKQLTEAALQAELEQHLAHDPQPNRKNGKTPKTIKHPSGNFELDAPRDRNGTFEPQLIKKNQTTLTDEIERKVLSMFSIGMSYRDINQHVEDMYGLNVSNATVSAITDKLIPELKAWQQRPLDSHYPIVWLDAIHYKVKEDGRYVSKAVYTLLALNMKGKKEILGLHLSENEGANYWLSVLADLNNRGVKDILIACVDGLTGFPEAIASIFPHTETQLCVIHQIRNSMKYVASKNQKAFMADLKPVYRAVSKEAAEMALDELEAKWGDAYPLVINSWRRKWHNLSHYFKYPEHIRKVIYTTNAVEAVHRQFRKLTKTKGAFPNENSLLKLLYAGILNASDKWTMPIHNWSLCLSQLAIYFEGRLDSVLEI
- soluble on expression in E. coli: not soluble

Sequence: TDTDEVINLRVVETTDIHTNLMDYDYYKDKPTQKIGLARTATLVKEARAEVTNSVLVDNGDLLQGSPMGDYMADKGIEAGEVHPAYKAMNQLDYDAGNIGNHEFNYGLEFLAESINDADFPYISANVYDAKTKEHYFKPYIIKTHKLKDTAGVEHEIKVGYIGFVPPQIMVWDKKNLEGKVFARDIKETAEELVPQMKAEGADVIVAIPHSGVSTNPYKQGEENSTYYLSEVDGIDAIAFGHSHAVFPGKGFDNLQGIDNENGTINGVAAVMPGRWGSHVGVMDLTLEQKDGKWSVVKGQSEARPIFDKTNQKSLADADKGIVQALEADHKGTRDFVNQ
- soluble on expression in E. coli: not soluble
